{"source": "patent US7285380B2", "about": "“Methods of producing polyketide synthase mutants and compositions and uses thereof” (The Salk Institute for Biological Studies, priority 2000, dated 2007)", "molecules": {"B1": {"name": "4B: alfalfa CHS mutant: A1 (four), A2 (five), A3 (M158G, Y160F), A4 (K269G) (protein, UniProt P30074 1-389, looked up, variant D96A V98L V99A V100M T131S S133T G134T V135P M137L M158G Y160F K269G)", "Chalcone synthase 2": "MVSVSEIRKAQRAEGPATILAIGTANPANCVEQSTYPDFYFKITNSEHKTELKEKFQRMCDKSMIKRRYMYLTEEILKENPNVCEYMAPSLDARQAMLAMEVPRLGKEAAVKAIKEWGQPKSKITHLIVCSTTTPDLPGADYQLTKLLGLRPYVKRYGMFQQGCFAGGTVLRLAKDLAENNKGARVLVVCSEVTAVTFRGPSDTHLDSLVGQALFGDGAAALIVGSDPVPEIEKPIFEMVWTAQTIAPDSEGAIDGHLREAGLTFHLLGDVPGIVSKNITKALVEAFEPLGISDYNSIFWIAHPGGPAILDQVEQKLALKPEKMNATREVLSEYGNMSSACVLFILDEMRKKSTQNGLKTTGEGLEWGVLFGFGPGLTIETVVLRSVAI"}, "B2": {"name": "C164S: alfalfa CHS C164S mutant (protein, listed as Medicago sativa)", "chain": "MVSVSEIRKAQRAEGPATILAIGTANPANCVEQSTYPDFYFKITNSEHKTELKEKFQRMCDKSMIKRRYMYLTEEILKENPNVCEYMAPSLDARQDMVVVEVPRLGKEAAVKAIKEWGQPKSKITHLIVCTTSGVDMPGADYQLTKLLGLRPYVKRYMMYQQGSFAGGTVLRLAKDLAENNKGARVLVVCSEVTAVTFRGPSDTHLDSLVGQALFGDGAAALIVGSDPVPEIEKPIFEMVWTAQTIAPDSEGAIDGHLREAGLTFHLLKDVPGIVSKNITKALVEAFEPLGISDYNSIFWIAHPGGPAILDQVEQKLALKPEKMNATREVLSEYGNMSSACVLFILDEMRKKSTQNGLKTTGEGLEWGVLFGFGPGLTIETVVLRSVAI"}, "B3": {"name": "14B: alfalfa CHS mutant: V98L, T131S, S133T, G134T, V135P, M137L (protein, UniProt P30074 1-389, looked up, variant V98L T131S S133T G134T V135P M137L)", "Chalcone synthase 2": "B1 Chalcone synthase 2 with A96D, A99V, M100V, G158M, F160Y, G269K"}, "B4": {"name": "2B: alfalfa CHS mutant: A1 (D96A, V98L, V99A, V100M), A2 (T131S, S133T, G134T, V135P, M137L) (protein, UniProt P30074 1-389, looked up, variant D96A V98L V99A V100M T131S S133T G134T V135P M137L)", "Chalcone synthase 2": "B1 Chalcone synthase 2 with G158M, F160Y, G269K"}, "B5": {"name": "G256L: CHS G256L mutant (protein, listed as Medicago sativa)", "chain": "B2 chain with S164C, G256L"}, "B6": {"name": "S338I: CHS S338I mutant (protein, listed as Medicago sativa)", "chain": "B2 chain with S164C, S338I"}, "B7": {"name": "A4: alfalfa CHS mutant: A4 (L268K, K269G, D270A, G273D) (protein, UniProt P30074 1-389, looked up, variant L268K K269G D270A G273D)", "Chalcone synthase 2": "B2 chain with S164C, L268K, K269G, D270A, G273D"}, "B8": {"name": "I254M: CHS I254M mutant (protein, listed as Medicago sativa)", "chain": "B2 chain with S164C, I254M"}, "B9": {"name": "T197L: CHS T197L mutant (protein, listed as Medicago sativa)", "chain": "B2 chain with S164C, T197L"}, "B10": {"name": "T197L/G256L/S338I: CHS triple mutant with cavity resembling 2-PS (protein, listed as Medicago sativa)", "chain": "B2 chain with S164C, T197L, G256L, S338I"}, "B11": {"name": "16B: alfalfa CHS mutant: V98L, T131S, S133T, G134T, V135P, M137L, M158G, Y160F (protein, UniProt P30074 1-389, looked up, variant V98L T131S S133T G134T V135P M137L M158G Y160F)", "Chalcone synthase 2": "B1 Chalcone synthase 2 with A96D, A99V, M100V, G269K"}}, "key": {"CHS": {"system": "CHS", "settings": "cited from earlier work"}, "[1]": {"assay": "TLC-based radiometric assay of product formation by 2-PS, CHS and CHS mutants (LC/MS confirmation)", "format": "biochemical", "settings": "for product formed: 100 mM Hepes pH 7.0, 30 μM starter-CoA, 60 μM [14C]-malonyl-CoA, 25° C", "description": "Comparison of the initiation/elongation cavities of 2-PS (SEQ ID NO:68) and CHS (SEQ ID NO:1) reveal four amino acid differences. In 2-PS, Leu202, Met259, Leu261, and Ile343 replace Thr197, Ile254, Gly256, and Ser338, respectively, of CHS. These four substitutions reduce cavity volume from 923 Å^3 in CHS to 274 Å^3 in 2-PS. A model of methylpyrone in the 2-PS cavity, based on the position of acetoacetyl-CoA, emphasizes the volume change compared to the CHS-naringenin complex (Accession No. 1 CGK, SEQ ID NO:69). Leu202 and Ile343 occlude the portion of the 2-PS cavity corresponding to the coumaroyl-binding site of CHS. Replacement of Gly256 in CHS by Leu261 in 2-PS severely reduces the size of the active site cavity. Substitution of Met259 in 2-PS for Ile254 in CHS produces a modest alteration in cavity volume. To examine the functional importance of these amino acid differences, the initiation/elongation cavity of CHS was altered by mutagenesis to resemble that of 2-PS. The resulting mutant proteins were screened for activity using either p-coumaroyl-CoA or acetyl-CoA as starter molecules. Activities of 2-PS, CHS, and the CHS mutants were determined by monitoring product formation using a TLC-based radiometric assay. Assay conditions were 100 mM Hepes (pH 7.0), 30 μM starter-CoA (either p-coumaroyl-CoA or acetyl-CoA), and 60 μM [^14C]-malonyl-CoA (50,000 cpm) in 100 μl at 25° C. Reactions were quenched with 5% acetic acid, extracted with ethyl acetate, and applied to TLC plates and developed. Due to the spontaneous cyclization of chalcone into the flavanone naringenin, activities of CHS are referenced to nanngenin formation.\nThe x-ray crystal structures of 2-PS (SEQ ID NO:68) and CHS (SEQ ID NO:1) imply that the size of the active site cavity limits polyketide length and modulates folding of the polyketide chain. […] Since the T197L, G256L, and S338Imutants (see SEQ ID NO:1) altered product formation, a CHS triple mutant was generated. […] LC/MS/MS analysis was performed by the Mass Spectroscopy facility of the Scripps Research Institute. Scaled-up assays (2 ml reaction volume) with the CHS T197L/G256L/S338I mutant (see SEQ ID NO:1) and 2-PS (SEQ ID NO:68) were performed. Extracts were analyzed on a Hewlett-Packard HP1100 MSD single quadrupole mass spectrometer coupled to a Zorbax SB-C18 column (5 μm, 2.1 mm×150 mm). HPLC conditions were as follows: gradient system from 0 to 100% methanol in water (each containing 0.2% acetic acid) within 10 mm; flow rate 0.25 ml min^−1. LC/MS/MS data from both reactions were identical: 6-methyl-4-hydroxy-2-pyrone, Rt=5.068 mm; [M-H]^−125; [M-H—CO2]^−81. The numbers show m/z values with relative intensities in parenthesis. The observed fragmentation matches previously published data."}, "[2]": {"molecular_target": "2-Pyrone synthase (2-PS) from Gerbera hybrida (Gerbera hybrida)", "assay": "X-ray crystal structure, homodimer interface"}, "[3]": {"assay": "14C malonyl-CoA assay of CHS mutants, products analysed by TLC and autoradiography (naringenin vs resveratrol)", "format": "biochemical", "settings": "TLC autoradiography", "description": "Wild type CHS produces chalcone, which spontaneously converts to naringenin, the position of which is indicated by the arrow on the left. Wild type STS produces resveratrol, the position of which is indicated by the arrow of the right. Function conversion of CHS to STS (i.e., the production of the alternate product from the same intermediate) results in diminished production of naringenin and increased production of resveratrol. Various mutants of CHS produce varying degrees of resveratrol, showing that CHS activity can be altered to STS-like activity to different extents by different mutations.\nMutant CHS (SEQ ID NO: 1) has altered activity based on assays conducted with ^14C malonyl-CoA. Products were extracted with ethyl acetate and analyzed by silica gel thin layer chromatography (TLC) and visualized by autoradiography."}, "[4]": {"assay": "Malonyl-CoA decarboxylation by C164S mutant (crystallographic and functional assay)", "format": "biochemical", "description": "Asn336 appears to play a crucial role in the decarboxylation reaction. […] In the hexanoyl-CoA complex, the side chain amide of Asn336 provides a hydrogen bond to the carbonyl oxygen of the thioester. This interaction would stabilize the enolate anion resulting from decarboxylation of malonyl-CoA (see FIG. 6). At the same time, the lack of formal positive charge at Asn336 may preserve the partial carbanion character of this resonance-stabilized anion, and thus the nucleophilicity of the carbanion form."}, "[5]": {"assay": "Activity and kinetics of 18xCHS / 8xCHS compared with wild type CHS and STS", "format": "biochemical", "settings": "listed as 8×CHS"}, "[6]": {"settings": "starter p-coumaroyl-CoA or acetyl-CoA"}}, "note": "Residue numbers refer to the chain shown, from its start. Names may count otherwise. “Also recorded” adds a separate entry of the source."}
{"molecule": "C/C=C/C/C=C/CCC(=O)[C@H]1O[C@H]1C(N)=O", "note": "[Cerulenin]", "values": [{"measurement": "inhibition of CHS", "setting": "CHS", "result": "potent irreversible inhibitor of CHS"}, {"measurement": "inactivation of CHS after preincubation with substrate", "setting": "CHS; preincubation with coumaroyl-CoA or malonyl-CoA", "result": "Preincubation of CHS with coumaroyl-CoA prevents inactivation by cerulenin, but pre-incubation with malonyl-CoA does not"}]}
{"molecule": "Wild-type CHS: wild type alfalfa chalcone synthase 2, SEQ ID NO:1 [reference compound]", "values": [{"measurement": "product formed", "setting": "[1]", "result": "generates the tetraketide chalcone"}, {"measurement": "preference for p-coumaroyl-CoA versus acetyl-CoA as starter molecule", "setting": "[1]; [6]", "result": 230, "unit": "fold"}]}
{"molecule": "2-PS: 2-Pyrone synthase from Gerbera hybrida, SEQ ID NO:68 [Mutant 2-PS, reference compound]", "values": [{"measurement": "product formed", "setting": "[1]", "result": "produces the triketide methylpyrone; also recorded: yields methylpyrone produced from three malonyl-CoA molecules"}, {"measurement": "starter molecule accepted", "setting": "[1]; [6]", "result": "accepts acetyl-CoA but does not use p-coumaroyl-CoA"}]}
{"molecule": "2-Pyrone synthase (2-PS) from Gerbera hybrida (enzyme)", "values": [{"measurement": "surface area buried per monomer by the dimerization surface", "setting": "[2]", "result": 1800, "unit": "Å^2"}]}
{"molecule": "B1", "values": [{"measurement": "naringenin amount", "setting": "[3]", "result": "reduced amounts of naringenin compared to wild type CHS"}, {"measurement": "resveratrol amount", "setting": "[3]", "result": "various amounts of resveratrol"}]}
{"molecule": "B2", "values": [{"measurement": "catalytic / decarboxylation activity on malonyl-CoA", "setting": "[4]", "result": "retains decarboxylation activity; also recorded: retains limited catalytic activity; also recorded: produces acetyl-CoA"}]}
{"molecule": "B3", "values": [{"measurement": "naringenin amount", "setting": "[3]", "result": "reduced amounts of naringenin compared to wild type CHS"}, {"measurement": "resveratrol amount", "setting": "[3]", "result": "little or no resveratrol"}]}
{"molecule": "B4", "values": [{"measurement": "naringenin amount", "setting": "[3]", "result": "reduced amounts of naringenin compared to wild type CHS"}, {"measurement": "resveratrol amount", "setting": "[3]", "result": "little or no resveratrol"}]}
{"molecule": "B5", "values": [{"measurement": "product formed", "setting": "[1]", "result": "do not form chalcone"}, {"measurement": "preference for acetyl-CoA as starter molecule", "setting": "[1]; [6]", "result": 3, "unit": "fold"}]}
{"molecule": "B6", "values": [{"measurement": "product formed", "setting": "[1]", "result": "do not form chalcone"}, {"measurement": "product formed", "setting": "[1]; listed as S3381", "result": "form a distinct product using coumaroyl-CoA as a starter molecule"}, {"measurement": "preference for p-coumaroyl-CoA versus acetyl-CoA as starter molecule", "setting": "[1]; [6]", "result": 3, "unit": "fold"}]}
{"molecule": "B7", "values": [{"measurement": "product profile (naringenin or chalcone versus resveratrol), cyclization specificity", "setting": "[3]", "result": "no effect on cyclization specificity"}]}
{"molecule": "B8", "values": [{"measurement": "function and specific activity relative to wild-type enzyme", "setting": "[1]", "result": "functionally comparable to wild-type enzyme with a modest reduction in specific activity"}, {"measurement": "product formed", "setting": "[1]", "result": "yields chalcone"}]}
{"molecule": "B9", "values": [{"measurement": "product formed", "setting": "[1]", "result": "do not form chalcone; also recorded: form a distinct product using coumaroyl-CoA as a starter molecule"}, {"measurement": "preference for p-coumaroyl-CoA versus acetyl-CoA as starter molecule", "setting": "[1]; [6]", "result": 10, "unit": "fold"}]}
{"molecule": "B10", "values": [{"measurement": "product formed", "setting": "[1]", "result": "produces only methylpyrone"}, {"measurement": "starter molecule accepted", "setting": "[1]; [6]", "result": "only accepts acetyl-CoA (or malonyl-CoA) as the starter molecule"}]}
{"molecule": "B11", "values": [{"measurement": "naringenin amount", "setting": "[3]", "result": "reduced amounts of naringenin compared to wild type CHS"}, {"measurement": "resveratrol amount", "setting": "[3]", "result": "various amounts of resveratrol"}, {"measurement": "activity and kinetics compared with STS", "setting": "[5]", "result": "activity that is similar to the 18×CHS mutant"}]}
